From the supplement of paper PMC7877785
± gives the uncertainty stated by the source.

Assay: self-splicing fitness, log relative to wild type (ln ratio); higher = more splicing; Tetrahymena group I intron in knt gene, E. coli kanamycin selection, DiMSum; sequences stand for … in CUCUCU…GGAGGGAAAAGUUAUCAGGCAUGCACCUGGUAGCUAGUCUUUAAACCAAUAGAUUGCAUCGGUUUAAAAGGCAAGACCGUCAAAUUGCGGGAAAGGGGUCAACAGCCGUUCAGUACCAAGUCUCAGGGGAAACUUUGAGAUGGCCUUGCAAAGGGUAUGGUAAUAAGCUGACGGACAUGGUCCUAACCACGCAGCCAAGUCCUAAGUCAACAGAUCUUCUGUUGAUAUGGAUGCAGUUCACAGACUAAAUGUCGGUCGGGGAAGAUGUAUUCUUCUCAUAAGAUAUAGUCGGACCUCUCCUUAAUGGGAGCUAGCGGAUGAAGUGAUGCAACACUGGAGCCGCUGGGAACUAAUUUGUAUGCGAAAGUAUAUUGAUUAGUUUUGGAGUACUCGUGGUCG
In short: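 Fitness was computed with DiMSum as the error-weighted combination of replicate fold changes, kanamycin versus none, each normalised to wild type. The library randomised all eight intron nucleotides of the P1ex region, with the intron placed in the knt kanamycin-resistance gene on pET-22b(+) in E. coli BL21(DE3). Six replicate transformations were grown overnight at 37°C or 30°C on LB agar with or without 25 μg/mL kanamycin, plus 100 μg/mL carbenicillin, 50 μM IPTG and 0.2% rhamnose. Pooled colonies were amplicon-sequenced on an Illumina HiSeq 2500.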

Row | Sequence | self-splicing fitness (ln) (30 °C) | self-splicing fitness (ln) (37 °C)
1 | GUCGAGCAAUAUUACGUAGG | -3.66 ± 0.18 | -2.08 ± 0.16
2 | GUCGAGCAAUAUUACGUAUG | -3.13 ± 0.32 | -0.147 ± 0.21
3 | GUCGAGCAAUAUUACGUAUU | -1.52 ± 0.29 | -0.948 ± 0.23
4 | GUCGAGCAAUAUUACGUGAG | -0.54 ± 0.076 | -0.266 ± 0.096
5 | GUCUAGCAAUAUUACGAAUA | -1.87 ± 0.17 | -0.494 ± 0.14
6 | GUCUAGCAAUAUUACGAGAC | -3.7 ± 0.24 | -2.34 ± 0.3
7 | GUCUAGCAAUAUUACGAUCU | -1.57 ± 0.12 | -0.315 ± 0.14
8 | GUCUAGCAAUAUUACGCUAC | -2.41 ± 0.47 | -2.57 ± 0.33
9 | GUCUAGCAAUAUUACGGACG | -0.561 ± 0.15 | -0.711 ± 0.2
10 | GUCUAGCAAUAUUACGGAUA | -1.26 ± 0.099 | -0.0363 ± 0.11
11 | GUCUAGCAAUAUUACGGCUA | – | -2.64 ± 0.33
12 | GUCUAGCAAUAUUACGGGAG | -1.87 ± 0.17 | -0.423 ± 0.11
13 | GUCUAGCAAUAUUACGGGUC | -2.14 ± 0.2 | -1.67 ± 0.17
14 | GUCUAGCAAUAUUACGGGUU | -1.92 ± 0.082 | -0.234 ± 0.083
15 | GUCUAGCAAUAUUACGGUCA | -0.592 ± 0.11 | -0.44 ± 0.12
16 | GUCUAGCAAUAUUACGGUCC | -2.44 ± 0.15 | -1.18 ± 0.13
17 | GUCUAGCAAUAUUACGGUCU | -2.19 ± 0.17 | -0.272 ± 0.16
18 | GUCUAGCAAUAUUACGUACG | -1.29 ± 0.12 | -0.709 ± 0.12
19 | GUCUAGCAAUAUUACGUAUC | -0.834 ± 0.08 | 0.353 ± 0.11
20 | GUCUAGCAAUAUUACGUCAA | -1.4 ± 0.067 | -0.997 ± 0.085
21 | GUCUAGCAAUAUUACGUCGU | -0.819 ± 0.096 | 0.377 ± 0.092
22 | GUCUAGCAAUAUUACGUGAC | -3.73 ± 0.33 | -0.257 ± 0.2
23 | GUCUAGCAAUAUUACGUGAG | -0.175 ± 0.075 | 0.0626 ± 0.093
24 | GUCUAGCAAUAUUACGUUAC | -0.99 ± 0.099 | -0.771 ± 0.096

Row | Sequence | self-splicing fitness (ln) (30 °C) | self-splicing fitness (ln) (37 °C)
25 | GUCUAGCAAUAUUACGUUCG | -0.604 ± 0.18 | -0.859 ± 0.17
26 | GUGAAGCAAUAUUACGAAUC | -0.696 ± 0.14 | -0.964 ± 0.22
27 | GUGAAGCAAUAUUACGACAU | 0.0507 ± 0.012 | 0.246 ± 0.032
28 | GUGAAGCAAUAUUACGAGAA | -1.97 ± 0.13 | -0.33 ± 0.13
29 | GUGAAGCAAUAUUACGAGCC | – | -2.76 ± 0.48
30 | GUGAAGCAAUAUUACGAGGU | -1.83 ± 0.29 | -1.36 ± 0.26
31 | GUGAAGCAAUAUUACGAGUA | -1.84 ± 0.13 | -1.47 ± 0.16
32 | GUGAAGCAAUAUUACGAGUC | -2.58 ± 0.17 | -0.63 ± 0.23
33 | GUGAAGCAAUAUUACGAUCA | -0.337 ± 0.11 | 0.465 ± 0.13
34 | GUGAAGCAAUAUUACGAUGU | -0.316 ± 0.064 | -0.0235 ± 0.094
35 | GUGAAGCAAUAUUACGAUUU | -0.586 ± 0.051 | 0.316 ± 0.091
36 | GUGAAGCAAUAUUACGCGUG | -0.812 ± 0.057 | -0.134 ± 0.061
37 | GUGAAGCAAUAUUACGCUCA | -1.35 ± 0.12 | -1.62 ± 0.17
38 | GUGAAGCAAUAUUACGCUGG | -1.42 ± 0.12 | -0.76 ± 0.13
39 | GUGAAGCAAUAUUACGGACA | 0.209 ± 0.092 | -0.366 ± 0.1
40 | GUGAAGCAAUAUUACGGAGG | -2.3 ± 0.23 | -2.49 ± 0.41
41 | GUGAAGCAAUAUUACGGAUC | -1.43 ± 0.086 | -0.286 ± 0.13
42 | GUGAAGCAAUAUUACGGCUG | -0.541 ± 0.082 | 0.0938 ± 0.11
43 | GUGAAGCAAUAUUACGGUAC | -0.508 ± 0.12 | -0.311 ± 0.15
44 | GUGAAGCAAUAUUACGGUUG | -1.71 ± 0.076 | -1.13 ± 0.11
45 | GUGAAGCAAUAUUACGUAAA | -1.41 ± 0.086 | -1.51 ± 0.12
46 | GUGAAGCAAUAUUACGUAAC | -1.99 ± 0.26 | -1.23 ± 0.31
47 | GUGAAGCAAUAUUACGUAGG | -2.29 ± 0.14 | -0.218 ± 0.15
